In PMC3576809:

Biological target: recombinant full-length kif2a, MBP fusion protein (Xenopus) (UniProt Q91637)
Assay: pull-down; 1 µM MBP-kif2a added to stage 3 embryo cytoplasmic extract for 15 min, retrieved on amylose resin (15 min), washed with PBS with 0.01% Tween; importin α immunoblot quantified, normalized to kif2a intensity

Sequence of UniProt Q91637 (Q91637 whole entry, the tested form may be a part): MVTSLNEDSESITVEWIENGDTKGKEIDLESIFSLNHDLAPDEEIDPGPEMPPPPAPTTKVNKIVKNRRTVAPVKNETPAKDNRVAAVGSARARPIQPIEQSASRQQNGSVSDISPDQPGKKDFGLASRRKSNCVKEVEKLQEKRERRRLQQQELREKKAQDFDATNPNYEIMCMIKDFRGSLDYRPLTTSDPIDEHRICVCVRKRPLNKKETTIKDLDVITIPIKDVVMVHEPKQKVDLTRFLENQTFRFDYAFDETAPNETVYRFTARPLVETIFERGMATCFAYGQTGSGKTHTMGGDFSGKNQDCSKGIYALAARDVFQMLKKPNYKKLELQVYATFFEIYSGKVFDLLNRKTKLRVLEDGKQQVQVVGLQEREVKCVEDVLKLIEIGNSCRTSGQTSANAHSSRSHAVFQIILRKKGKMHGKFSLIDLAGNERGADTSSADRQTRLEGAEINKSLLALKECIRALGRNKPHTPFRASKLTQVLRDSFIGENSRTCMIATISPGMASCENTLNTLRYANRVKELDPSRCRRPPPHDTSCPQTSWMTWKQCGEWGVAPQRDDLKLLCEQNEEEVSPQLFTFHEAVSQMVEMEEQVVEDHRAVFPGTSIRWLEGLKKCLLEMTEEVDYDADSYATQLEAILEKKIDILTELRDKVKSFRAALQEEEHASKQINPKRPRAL

In the case of “importin α (endogenous, Xenopus laevis egg and embryo extracts) (natural protein)”, the fold of importin α retrieved from stage 3 extracts against stage 8 extracts is reported as 10 fold.
